Assay results: paper PMC8999711

Target: ActR-IIB extracellular domain (type II receptor ectodomain) (UniProt Q13705)
Assay: SPR; Reichert4SPR; biotinylated receptor ectodomains immobilised on a streptavidin-coated CMD200 chip (350-500 RU); BMP2 ligands as analytes, six concentrations from 160 nM (log 2 dilution series); 25 °C; 10 mM HEPES pH 7.4, 500 mM NaCl, 3.4 mM EDTA, 0.005% Tween-20; 10 μL/min; 1:1 Langmuir global fit; apparent KD, mean of two independent experiments

Chain of UniProt Q13705 (Q13705 19-137): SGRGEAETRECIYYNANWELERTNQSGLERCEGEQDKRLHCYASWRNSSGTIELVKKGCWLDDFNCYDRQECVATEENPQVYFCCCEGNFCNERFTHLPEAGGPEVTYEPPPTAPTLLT

- Kd: 11.6 nM
Substance: BMP2 Azide (BMP2 variant with H-L-Lys(EO-N3)-OH at position 83 of each chain) (ligand)
